Measurements published in patent publication US20230183665A1, “THERMOSTABLE GLUCOCEREBROSIDASE” (TEIKYO UNIVERSITY, priority 2020, published 2023).

Key:
[1] = biological target: T1, RGC1 (Oryza sativa subsp. japonica, UniProt Q8L7J2); test: Substrate specificity of RGC1: ceramide generated from glucosylceramide or synthetic β-glucoside substrates (Example 3); assay type: biochemical, rice (Oryza sativa L. cv. Nipponbare); details: enzyme RGC1, 12.5 μM substrate, pH 5.5, 37° C., 15 minutes; for Relative activity (%): activity with d18:1(4E)-C8:0-GluCer defined as 100, average of five tests
T1 construct: The resulting solution was used as rice-derived glucocerebrosidase (RGC1); from tissue; host or cells: stems of rice (Oryza sativa L. cv. Nipponbare)
T1 sequence (Q8L7J2 38-521 limits assumed): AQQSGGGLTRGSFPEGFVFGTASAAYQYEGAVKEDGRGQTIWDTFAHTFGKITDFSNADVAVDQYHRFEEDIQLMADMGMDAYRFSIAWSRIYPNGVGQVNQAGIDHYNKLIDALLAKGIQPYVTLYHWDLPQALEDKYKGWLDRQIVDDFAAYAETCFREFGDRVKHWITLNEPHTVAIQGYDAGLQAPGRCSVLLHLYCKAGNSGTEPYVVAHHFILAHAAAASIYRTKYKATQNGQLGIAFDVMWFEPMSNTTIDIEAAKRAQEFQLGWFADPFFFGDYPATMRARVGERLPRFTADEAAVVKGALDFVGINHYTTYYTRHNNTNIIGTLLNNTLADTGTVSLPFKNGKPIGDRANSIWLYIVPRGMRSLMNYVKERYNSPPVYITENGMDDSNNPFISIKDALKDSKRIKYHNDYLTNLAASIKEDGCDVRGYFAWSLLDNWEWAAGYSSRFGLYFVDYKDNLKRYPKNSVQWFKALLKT
Procedure: (§1) The glucocerebrosidase activity of the fraction was measured as follows: a predetermined amount of sample was added to a 50 mM acetate buffer solution (pH 5.5) containing 100 μM glucosylceramide (cerebroside B), 0.1% Tween 20, and 0.05% sodium cholate, and incubated at 37° C. for 15 minutes. Subsequently, a 4-fold amount of ethanol was added to the obtained reaction solution, mixed therewith, and then centrifuged at 15000 rpm for 20 minutes. The centrifuged supernatant was subjected to high-performance liquid chromatography analysis. In the high-performance liquid chromatography analysis, the sample was injected to TSKgel ODS-120T column (4.6 mm×30 cm), and a solvent having an ethanol concentration of 83% was flowed at a flow rate of 0.8 mL/min, followed by detection in a UV detector (ultraviolet absorption wavelength: 215 nm) to thereby measure the amount of ceramide newly generated through enzymatic reaction. The amount of ceramide was determined by using, as a standard, ceramide generated from cerebroside B by imiglucerase (manufactured by Sanofi S. A.), human-derived glucocerebrosidase. The molecular weight of the generated ceramide was examined by negative LC-MS (manufactured by Agilent Technologies, Inc.) to thereby confirm that it was ceramide generated from cerebroside B (ESI-MS m/z: 564.5[M-H]^−). Glucocerebrosidase activity per mL of the enzyme solution was calculated when the amount of the enzyme that generated 1 μmol of ceramide for 1 minute in the enzymatic reaction solution was defined as 1 unit (U).
RGC1 obtained in Example 2 was added to 12.5 μM glucosylceramide (one of the 12 animal-derived, plant-derived, or filamentous fungus-derived ones in Table 2 below) or synthetic β-glucoside, and a 50 mM acetate buffer solution (pH 5.5) containing 0.1% Tween 20 and 0.05% sodium cholate, and incubated at 37° C. for 15 minutes. Subsequently, a 4-fold amount of ethanol was added to the obtained reaction solution, mixed therewith, and then centrifuged under a condition of 15000 rpm for 20 minutes. The amount of ceramide in the supernatant was measured by high-performance liquid chromatography using various reverse-phase columns to thereby determine glucocerebrosidase activity. The amount of ceramide was determined by using, as a standard, ceramide generated from the glucosylceramide by imiglucerase. The glucocerebrosidase activity was determined as relative activity when activity in the case of using animal-derived glucosylceramide d18:1(4E)-C8:0-GluCer as a substrate was defined as 100 (rightmost column of Table 2 below). This test was conducted five times, and average relative activity was determined therefrom.

[2] = Optimum temperature for glucocerebrosidase activity (Examples 5, 12, 20); assay type: biochemical
Procedure: as §1
RGC1 obtained in Example 2 and imiglucerase were each added to a 50 mM acetate buffer solution (pH 5.5) containing 100 μM glucosylceramide (cerebroside B), 0.1% Tween 20, and 0.05% sodium cholate, and incubated at each temperature for 15 minutes. Subsequently, a 4-fold amount of ethanol was added to the obtained reaction solution, mixed therewith, and then centrifuged under a condition of 15000 rpm for 20 minutes. The supernatant was subjected to high-performance liquid chromatography analysis to measure the amount of ceramide generated through enzymatic reaction. The high-performance liquid chromatography analysis was carried out in the same manner as in Example 2. The amount of ceramide and enzymatic activity were also calculated in the same manner as in Example 2. A temperature that attained the highest glucocerebrosidase activity was regarded as the optimum temperature. This test was conducted three times, and an average value was determined therefrom.
The optimum temperatures for the glucocerebrosidase activity of SGC1 obtained in Example 11 and imiglucerase were confirmed by the same method as in Example 5.
Enzyme extracts derived from various plants which were obtained in accordance with Example 19, the purified rice-derived RGC1 mentioned above and the purified soybean-derived SGC1 mentioned above were each added to a 50 mM sodium acetate buffer solution (pH 5.5) containing 100 μM glucosylceramide (cerebroside B), 0.1% Tween 20, and 0.05% sodium cholate, and incubated at each temperature for 15 minutes. Subsequently, a 4-fold amount of ethanol was added to the obtained reaction solution, mixed therewith, and then centrifuged at 15000 rpm for 20 minutes. The supernatant was subjected to high-performance liquid chromatography analysis to measure the amount of ceramide generated through enzymatic reaction. The high-performance liquid chromatography analysis was carried out in the same manner as in Example 5. The amount of ceramide and enzymatic activity were also calculated in the same manner as in Example 5. As a result, a temperature that attained the highest glucocerebrosidase activity was regarded as the optimum temperature. This test was conducted three times, and an average value was determined therefrom.

[3] = Thermostability: relative residual glucocerebrosidase activity after incubation at pH 5 and pH 7 (Examples 6, 13); assay type: physicochemical; details: 45° C.; pH 5 for 1 to 31 hours, pH 7 for 0.3 to 5 hours; FIGS. 3 and 4
Procedure: The glucocerebrosidase activity of the fraction was measured as follows: a predetermined amount of sample was added to a 50 mM acetate buffer solution (pH 5.5) containing 100 μM glucosylceramide (cerebroside B), 0.1% Tween 20, and 0.05% sodium cholate, and incubated at 37° C. for 15 minutes. Subsequently, a 4-fold amount of ethanol was added to the obtained reaction solution, mixed therewith, and then centrifuged at 15000 rpm for 20 minutes. The centrifuged supernatant was subjected to high-performance liquid chromatography analysis. […] The amount of ceramide was determined by using, as a standard, ceramide generated from cerebroside B by imiglucerase (manufactured by Sanofi S. A.), human-derived glucocerebrosidase. […] Glucocerebrosidase activity per mL of the enzyme solution was calculated when the amount of the enzyme that generated 1 μmol of ceramide for 1 minute in the enzymatic reaction solution was defined as 1 unit (U).
RGC1 obtained in Example 2 and imiglucerase were each incubated at pH 5 simulating lysosome (50 mM acetate buffer solution (pH 5.0) containing 0.1% Triton X-100 and 0.05% sodium cholate) at 37° C. for 6 to 106 hours or at pH 7 simulating cytoplasm (50 mM potassium phosphate buffer solution (pH 7.0) containing 0.1% Triton X-100 and 0.05% sodium cholate) at 37° C. for 4 to 48 hours. […] This test was conducted three times, and an average value was determined therefrom. […]

[4] = Example 12, same method as Example 5
[5] = Example 20, 100 μM cerebroside B, pH 5.5, 15 minutes at each temperature, average of three tests

Molecule: CCCCCCCCCCCCC/C=C/[C@@H](O)[C@H](CO[C@@H]1O[C@H](CO)[C@@H](O[C@@H]2O[C@H](CO)[C@H](O)[C@H](O[C@]3(C(=O)O)C[C@H](O)[C@@H](NC(C)=O)C([C@H](O)[C@H](O)CO)O3)[C@H]2O)[C@H](O)C1O)NC(=O)CCCCCCCCCCCCCCCCC (some centres unmarked) [d18:1(4E)-C18:0-GM3]
- reaction of RGC1 with the substrate (in words) [1]: rarely reacted

Molecule: CCCCCCCCCCCCCC[C@@H](O)C(=O)N[C@@H](CO[C@@H]1O[C@H](CO)[C@@H](O)[C@H](O)[C@H]1O)[C@H](O)/C=C/CC/C=C(\C)CCCCCCCCC [d19:2(4E,8E,9Me)-C16h:0-GluCer, (4E,8E)-N-D-2′-hydroxypalmitoyl-1-O-β-D-glucopyranosyl-9-methyl-4,8-sphingadienine]
- Relative activity (%) [1]: 116.7%

Molecule: CCCCCCCCCCCCCC/C=C/[C@@H](O)C(=O)N[C@@H](CO[C@@H]1O[C@H](CO)[C@@H](O)[C@H](O)[C@H]1O)[C@H](O)/C=C/CC/C=C(\C)CCCCCCCCC [d19:2(4E,8E,9Me)-C18h:1-GluCer, (4E,8E)-N-D-2′-hydroxy-(E)-3′-octadecenoyl-1-O-β-D-glucopyranosyl-9-methyl-4,8-sphingadienine]
- Relative activity (%) [1]: 113.2%

Molecule: O=[N+]([O-])c1ccc(O[C@@H]2O[C@H](CO)[C@@H](O)[C@H](O)[C@H]2O)cc1 [pNP-β-glucoside, 4-nitrophenyl-β-D-glucopyranoside]
- reaction of RGC1 with the substrate (in words) [1]: rarely reacted
- Relative activity (%) [1]: 2.5%

B1: Imiglucerase: human-derived glucocerebrosidase produced in Chinese hamster ovary cells by gene recombination (Sanofi S. A.), belonging to GH30 (protein, UniProt P04062 40-536, looked up)
Lysosomal acid …: ARPCIPKSFGYSSVVCVCNATYCDSFDPPTFPALGTFSRYESTRSGRRMELSMGPIQANHTGTGLLLTLQPEQKFQKVKGFGGAMTDAAALNILALSPPAQNLLLKSYFSEEGIGYNIIRVPMASCDFSIRTYTYADTPDDFQLHNFSLPEEDTKLKIPLIHRALQLAQRPVSLLASPWTSPTWLKTNGAVNGKGSLKGQPGDIYHQTWARYFVKFLDAYAEHKLQFWAVTAENEPSAGLLSGYPFQCLGFTPEHQRDFIARDLGPTLANSTHHNVRLLMLDDQRLLLPHWAKVVLTDPEAAKYVHGIAVHWYLDFLAPAKATLGETHRLFPNTMLFASEACVGSKFWEQSVRLGSWDRGMQYSHSIITNLLYHVVGWTDWNLALNPEGGPNWVRNFVDSPIIVDITKDTFYKQPMFYHLGHFSKFIPEGSQRVGLVASQKNDLDAVALMHPDGSAVVVVLNRSSKDVPLTIKDPAVGFLETISPGYSIHTYLWRRQ
modifications: imiglucerase
notes: human-derived glucocerebrosidase produced in Chinese hamster ovary cells by gene recombination (Sanofi S. A.), belonging to GH30
- Optimum temperature (° C.) ([2]; Example 5, 100 μM cerebroside B, pH 5.5, 15 minutes at each temperature, average of three tests): 42.5 °C
- Optimum temperature (° C.) [2, 4]: 42.5 °C
- Optimum temperature (° C.) [2, 5]: 42.5 °C

B2: SGC1: soybean-derived glucocerebrosidase purified from soybean stems; identical to β-glucosidase 40, belongs to GH1; SEQ ID NO: 2 (protein)
chain: MAFRGGTMLILTMMALLEIQICSSEINRGNFPNGFVFGTASSAFQYEGAVKEDGRGPSVWDTFSHTFGKIIDFSNADVAVDQYHRYEEDIQLMKDMGMDAYRFSISWSRIFPNGYGQINQAGVDHYNKLINALLAKGIEPYVTLYHWDLPQALENKYSGWLNASIIMDFATYAETCFQKFGDRVKHWITFNEPHTFATQGYDVGLQAPGRCSILLHLFCRAGNSATEPYIVAHNVLLSHATVADIYRKKYKKIQGGSLGVAFDVIWYEPLTNTKEDIDAAQRAQDFQLGWFLDPLMFGDYPSSMRTRVGSRLPKFSQSEAALVKGSLDFVGINHYTTFYAKDNSTNLIGTLLHDSIADSGAVTLPFNGTKAISERASSIWLYIVPQSMRSLMIYIKQKYGNPPVYITENGMDDPNSIFISIKDALKDEKRIRYHTGYLSYLLASIKDGCNVKGYFVWSLLDNWEWSAGYTSRFGLYFVDYKDNLKRYPKQSVEWFKNFLKPTK
modifications: Oryza sativa L. cv. Nipponbare
- Optimum temperature (° C.) [2, 4]: 64.0 °C
- Optimum temperature (° C.) [2, 5]: 64.0 °C
- stability (relative residual activity) compared with imiglucerase [3]: evidently much superior in stability to imiglucerase
